# T1: APBA1_1, Q02410
# T1 sequence (Q02410 651-752, limits assumed, looked up): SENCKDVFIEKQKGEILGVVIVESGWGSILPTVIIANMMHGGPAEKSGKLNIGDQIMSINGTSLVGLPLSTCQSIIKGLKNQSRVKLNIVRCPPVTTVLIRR
# T2: PCLO, Q9Y6V0
# T2 sequence (Q9Y6V0 4491-4600, limits assumed, looked up): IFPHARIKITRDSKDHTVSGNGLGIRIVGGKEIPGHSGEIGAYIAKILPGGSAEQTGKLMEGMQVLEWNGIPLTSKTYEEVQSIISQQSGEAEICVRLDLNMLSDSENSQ
# T3: HTRA4, P83105
# T3 sequence (P83105 378-476, limits assumed, looked up): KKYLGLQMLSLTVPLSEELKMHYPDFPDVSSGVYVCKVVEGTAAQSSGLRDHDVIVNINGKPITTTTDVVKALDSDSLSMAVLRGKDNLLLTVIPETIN
# T4: PARD3B_1, Q8TEW8
# T4 sequence (Q8TEW8 196-299, limits assumed, looked up): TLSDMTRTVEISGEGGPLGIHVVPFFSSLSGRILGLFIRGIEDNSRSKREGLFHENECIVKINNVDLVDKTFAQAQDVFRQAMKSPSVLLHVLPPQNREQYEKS
# T5: APBA1_2, Q02410
# T5 sequence (Q02410 742-832, limits assumed, looked up): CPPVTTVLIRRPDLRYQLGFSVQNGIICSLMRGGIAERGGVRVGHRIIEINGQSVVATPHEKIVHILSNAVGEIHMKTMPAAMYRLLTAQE
# T6: GRIP1_3, Q9Y3R0
# T6 sequence (Q9Y3R0 247-346, limits assumed, looked up): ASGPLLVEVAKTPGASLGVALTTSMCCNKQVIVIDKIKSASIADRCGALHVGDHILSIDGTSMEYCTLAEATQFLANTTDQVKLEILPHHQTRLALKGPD
# T7: LIN7A, O14910
# T7 sequence (O14910 103-200, limits assumed, looked up): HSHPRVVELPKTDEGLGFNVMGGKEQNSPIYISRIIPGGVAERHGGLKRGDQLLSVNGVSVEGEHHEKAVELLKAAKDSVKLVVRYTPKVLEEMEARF
# T8: GRIP1_4, Q9Y3R0
# T8 sequence (Q9Y3R0 467-571, limits assumed, looked up): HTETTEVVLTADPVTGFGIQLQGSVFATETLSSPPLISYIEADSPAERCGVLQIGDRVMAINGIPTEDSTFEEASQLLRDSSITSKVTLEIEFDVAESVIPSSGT
# T9: GRIP1_2, Q9Y3R0
# T9 sequence (Q9Y3R0 145-248, limits assumed, looked up): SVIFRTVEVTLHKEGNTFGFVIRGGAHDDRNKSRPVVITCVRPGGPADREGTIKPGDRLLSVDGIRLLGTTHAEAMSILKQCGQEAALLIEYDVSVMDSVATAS
# T10: TIAM2, Q8IVF5
# T10 sequence (Q8IVF5 885-986, limits assumed, looked up): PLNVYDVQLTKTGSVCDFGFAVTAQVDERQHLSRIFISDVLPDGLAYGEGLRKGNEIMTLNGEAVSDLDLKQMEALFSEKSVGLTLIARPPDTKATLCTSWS
# T11: LRRC7, Q96NW7
# T11 sequence (Q96NW7 1440-1537, limits assumed, looked up): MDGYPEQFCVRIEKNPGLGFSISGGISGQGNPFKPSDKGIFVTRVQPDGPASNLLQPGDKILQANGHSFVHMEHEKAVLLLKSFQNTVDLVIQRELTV
# Experiments:
# Experiment in all cases: holdup assay
# Design in all cases: key: below the threshold = too weak to quantify, mostly under pKd 3.1 to 4
# Settings in all cases: plain residues with an end cap or a label only (N-terminal biotin on a linker: ado-ado)
# PDZRN4_1, Q6ZMN7 = target: PDZRN4_1, Q6ZMN7
# Chain of PDZRN4_1, Q6ZMN7 (Q6ZMN7 213-318): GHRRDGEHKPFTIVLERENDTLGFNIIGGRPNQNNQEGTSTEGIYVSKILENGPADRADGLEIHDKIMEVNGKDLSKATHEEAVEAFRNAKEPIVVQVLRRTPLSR
# PICK1, Q9NRD5 = target: PICK1, Q9NRD5
# Chain of PICK1, Q9NRD5 (Q9NRD5 17-115): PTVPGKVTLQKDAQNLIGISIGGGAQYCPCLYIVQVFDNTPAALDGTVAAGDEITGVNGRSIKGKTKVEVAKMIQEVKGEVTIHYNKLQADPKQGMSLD
# Inadl_8, Q8NI35 = target: Inadl_8, Q8NI35
# Chain of Inadl_8, Q8NI35 (Q8NI35 1425-1530): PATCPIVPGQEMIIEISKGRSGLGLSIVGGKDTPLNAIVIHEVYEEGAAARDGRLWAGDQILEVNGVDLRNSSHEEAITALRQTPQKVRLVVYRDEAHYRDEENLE
# MAGI2_2, Q86UL8 = target: MAGI2_2, Q86UL8
# Chain of MAGI2_2, Q86UL8 (Q86UL8 410-522): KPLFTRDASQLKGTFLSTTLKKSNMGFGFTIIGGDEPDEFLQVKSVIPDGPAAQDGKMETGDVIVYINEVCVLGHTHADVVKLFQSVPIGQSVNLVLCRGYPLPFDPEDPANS
# NHERF2_2, Q15599 = target: NHERF2_2, Q15599
# Chain of NHERF2_2, Q15599 (Q15599 142-238): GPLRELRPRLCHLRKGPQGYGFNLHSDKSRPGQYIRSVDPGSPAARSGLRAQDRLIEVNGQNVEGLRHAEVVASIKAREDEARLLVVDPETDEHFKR
# APBA1_1, Q02410 = target: T1, APBA1_1, Q02410
# GOPC, Q9HD26 = target: GOPC, Q9HD26
# PCLO, Q9Y6V0 = target: T2, PCLO, Q9Y6V0
# Inadl_9, Q8NI35 = target: Inadl_9, Q8NI35
# Chain of Inadl_9, Q8NI35 (Q8NI35 1530-1615): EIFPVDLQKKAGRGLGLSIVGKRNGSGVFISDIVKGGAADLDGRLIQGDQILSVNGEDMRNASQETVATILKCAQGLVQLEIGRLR
# HTRA4, P83105 = target: T3, HTRA4, P83105
# PARD3B_1, Q8TEW8 = target: T4, PARD3B_1, Q8TEW8
# PARD3_3, Q8TEW0 = target: PARD3_3, Q8TEW0
# Chain of PARD3_3, Q8TEW0 (Q8TEW0 582-685): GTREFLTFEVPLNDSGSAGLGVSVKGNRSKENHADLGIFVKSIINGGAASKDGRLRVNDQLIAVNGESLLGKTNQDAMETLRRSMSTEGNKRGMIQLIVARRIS
# APBA1_2, Q02410 = target: T5, APBA1_2, Q02410
# DLG5_1, Q8TDM6 = target: DLG5_1, Q8TDM6
# Chain of DLG5_1, Q8TDM6 (Q8TDM6 617-713): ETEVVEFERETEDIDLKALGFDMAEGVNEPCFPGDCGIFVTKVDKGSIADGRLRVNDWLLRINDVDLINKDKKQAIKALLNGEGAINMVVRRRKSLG
# GRIP1_3, Q9Y3R0 = target: T6, GRIP1_3, Q9Y3R0
# LIN7A, O14910 = target: T7, LIN7A, O14910
# FRMPD2_2, Q68DX3 = target: FRMPD2_2, Q68DX3
# Chain of FRMPD2_2, Q68DX3 (Q68DX3 944-1038): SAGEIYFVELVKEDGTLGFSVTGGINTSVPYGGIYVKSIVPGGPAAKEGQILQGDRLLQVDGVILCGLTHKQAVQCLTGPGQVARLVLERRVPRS
# Inadl_2, Q8NI35 = target: Inadl_2, Q8NI35
# Chain of Inadl_2, Q8NI35 (Q8NI35 238-335): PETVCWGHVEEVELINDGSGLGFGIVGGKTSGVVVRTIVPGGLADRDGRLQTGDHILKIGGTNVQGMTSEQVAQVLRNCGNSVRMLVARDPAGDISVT
# GRIP2_3, Q9C0E4 = target: GRIP2_3, Q9C0E4
# Chain of GRIP2_3, Q9C0E4 (Q9C0E4 238-339): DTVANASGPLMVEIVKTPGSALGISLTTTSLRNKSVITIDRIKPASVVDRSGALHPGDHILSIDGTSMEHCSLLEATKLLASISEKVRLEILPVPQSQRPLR
# GRIP1_4, Q9Y3R0 = target: T8, GRIP1_4, Q9Y3R0
# GRIP1_2, Q9Y3R0 = target: T9, GRIP1_2, Q9Y3R0
# ARHGEF12, Q9NZN5-2 = target: ARHGEF12, Q9NZN5-2
# Chain of ARHGEF12, Q9NZN5-2 (Q9NZN5 other isoform, or with tags, fused parts or gaps): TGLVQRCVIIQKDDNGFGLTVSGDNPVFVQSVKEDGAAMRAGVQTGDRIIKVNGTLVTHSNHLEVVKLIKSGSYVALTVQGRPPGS
# DLG2_2, Q15700 = target: DLG2_2, Q15700
# Chain of DLG2_2, Q15700 (Q15700 189-283): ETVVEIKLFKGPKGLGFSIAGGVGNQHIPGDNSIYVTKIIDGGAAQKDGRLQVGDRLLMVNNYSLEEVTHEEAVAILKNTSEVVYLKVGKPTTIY
# TIAM2, Q8IVF5 = target: T10, TIAM2, Q8IVF5
# NOS1, P29475 = target: NOS1, P29475
# Chain of NOS1, P29475 (P29475 9-101): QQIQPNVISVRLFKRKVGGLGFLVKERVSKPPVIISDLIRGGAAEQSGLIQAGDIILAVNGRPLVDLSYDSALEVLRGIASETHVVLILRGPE
# LRRC7, Q96NW7 = target: T11, LRRC7, Q96NW7
Binder,"pKd (PDZRN4_1, Q6ZMN7)","pKd (PICK1, Q9NRD5)","pKd (Inadl_8, Q8NI35)","pKd (MAGI2_2, Q86UL8)","pKd (NHERF2_2, Q15599)","pKd (APBA1_1, Q02410)","pKd (PCLO, Q9Y6V0)","pKd (Inadl_9, Q8NI35)","pKd (HTRA4, P83105)","pKd (PARD3B_1, Q8TEW8)","pKd (PARD3_3, Q8TEW0)","pKd (APBA1_2, Q02410)","pKd (GRIP1_3, Q9Y3R0)","pKd (LIN7A, O14910)","pKd (Inadl_2, Q8NI35)","pKd (GRIP2_3, Q9C0E4)","pKd (GRIP1_2, Q9Y3R0)","pKd (DLG2_2, Q15700)","pKd (TIAM2, Q8IVF5)","pKd (LRRC7, Q96NW7)",further results
"IDESKKEWLI [CNTNAP2, Q9UHC6]",below the threshold,4.19,below the threshold,3.78,below the threshold,below the threshold,below the threshold,below the threshold,below the threshold,4.63,5.28,below the threshold,below the threshold,3.72,4.67,below the threshold,below the threshold,below the threshold,3.81,below the threshold,"pKd (GOPC, Q9HD26): below the threshold; pKd (DLG5_1, Q8TDM6): below the threshold; pKd (FRMPD2_2, Q68DX3): below the threshold; pKd (GRIP1_4, Q9Y3R0): below the threshold; pKd (ARHGEF12, Q9NZN5-2): below the threshold; pKd (NOS1, P29475): 4.21"
"SRSVVESDEL [MYPN, Q86TC9]",below the threshold,below the threshold,below the threshold,below the threshold,3.86,below the threshold,below the threshold,below the threshold,below the threshold,below the threshold,below the threshold,below the threshold,below the threshold,below the threshold,below the threshold,below the threshold,below the threshold,below the threshold,below the threshold,below the threshold,"pKd (GOPC, Q9HD26): below the threshold; pKd (DLG5_1, Q8TDM6): below the threshold; pKd (FRMPD2_2, Q68DX3): below the threshold; pKd (GRIP1_4, Q9Y3R0): below the threshold; pKd (ARHGEF12, Q9NZN5-2): 3.58; pKd (NOS1, P29475): below the threshold"
"KRPEMTSSSV [MUC3A, MUC3B, Q02505;Q9H195]",below the threshold,–,–,3.65,below the threshold,below the threshold,below the threshold,3.6,below the threshold,below the threshold,below the threshold,1.83,below the threshold,below the threshold,below the threshold,below the threshold,below the threshold,3.54,1.96,below the threshold,–

# Reference: publication PMC9482650, “Quantitative fragmentomics allow affinity mapping of interactomes” (Nature Communications, 2022)
